Laboratory results from patent US8212003.

Test system: fusion protein SFH (SAK-GSIEGR-HV2)

blood coagulant factor FXa
Anticoagulant activities (clot method) after cleavage of SFH with 0.2 U of FXa for 10 min at 37° C.: 2560 ATU
